Assays:
[1] = test system: PE13 breast tumors; assay: PE13 breast tumor limiting dilution assay (LDA); assay type: in vivo, mice; details: antibody 20 mg/kg once per week; 50, 150 or 500 cells re-injected, 59 days; L-calc
Protocol: PE13 breast tumor limiting dilution assay (LDA) study with 18R5 mAb: Animals bearing PE13 breast tumors were treated with either control antibody (gray circles), 18R5 (open triangles), taxol (black circles), or the combination of taxol and 18R5 (open squares). Taxol was dosed at 15 mg/kg twice per week and the antibodies were dosed 20 mg/kg once per week. Tumors were harvested and the human tumor cells were purified by lin depletion. 50, 150, or 500 tumor cells were injected into a new cohort of mice (n=10 per cell dose). Tumor growth frequency was monitored after 59 days and used to calculate the CSC frequency (L-calc).

[2] = test system: PN13 tumors; assay: Alcian blue and ki67 staining of treated PN13 tumor sections; assay type: in vivo, NOD/SCID mice; details: vs control antibody
Protocol: FIG. 43. Treatment with anti-FZD antibody 18R5 promotes differentiation of tumor cells into non-proliferative mucinous cells. NOD/SCID mice were injected with 50,000 OMP-PN13 pancreatic tumor cells and on day 23, mice with tumors of average volume of about 107 mm^3 were randomized, and treatment with control antibody or 18R5 was initiated four days later. After 20 days tumors were collected and sectioned. Tumor sections from 18R5 treated mice or control antibody treated mice were stained with alcian blue stain to reveal mucinous cells and by immunohistochemistry with antibody to ki67 to reveal proliferative cells. Exemplary mucinous cells and proliferative cells are highlighted by arrows.
Increased mucinous cells were also noted in a second pancreatic tumor line, PN13, following treatment with 18R5 […] (FIG. 43). In this experiment mice bearing PN13 tumors were treated as described above (Example 7). Tumors sections were stained with alcian blue to reveal mucinous cells and also stained by immunohistochemistry with an antibody to ki67 to reveal cells undergoing proliferation. […] Additionally, the frequency of ki67 positive cells was reduced by 18R5 treatment. […] This provides evidence that 18R5 treatment is promoting the differentiation of tumor cells into non-proliferative progeny.

B1: 18R5: human anti-FZD antibody; VH SEQ ID NO:10 (as 18R8), VL SEQ ID NO:14; binds FZD1, 2, 5, 7, 8 (antibody, V domains shown)
VH: EVQLVESGGGLVQPGGSLRLSCAASGFTFSHYTLSWVRQAPGKGLEWVSVISGDGSYTYYADSVKGRFTISSDNSKNTLYLQMNSLRAEDTAVYYCARNFIKYVFANWGQGTLVTVSS
VL: DIELTQPPSVSVAPGQTARISCSGDNIGSFYVHWYQQKPGQAPVLVIYDKSNRPSGIPERFSGSNSGNTATLTISGTQAEDEADYYCQSYANTLSLVFGGGTKLTVLG
modifications: 18R5/18R8 heavy chain variable region (VH); 18R5 light chain variable region (VL)
B1 was tested, and the “breast cancer stem cell frequency” value [1] was “Reduction of breast cancer stem cell frequency”, the “alcian blue positive mucinous cells” value [2] was “greatly increased numbers of alcian blue positive mucinous cells” and the “frequency of ki67 positive cells” value [2] was “reduced”.

— patent US8975044B2, “Polynucleotides encoding for frizzled-binding agents and uses thereof” (OncoMed Pharmaceuticals, Inc., priority 2008, dated 2015)
